Test [1] has as its target IL-2/IL-15Rβγ on kit225 cells (UniProt P14784). The test is described as follows: cell-based or functional assay.
Test [2] shares this target. The test is described as follows: cell-based or functional assay. This is another data set of the same source.
For test [3], the target named is PD-1 on PD-1 Effector Cells (UniProt Q15116). In words: cell-based or functional assay.
For the next test, the target named is FcγRIIIa F158 (human) (UniProt P08637). The test is described as follows: SPR; ratio of affinity (1/Kd) for FcγRIIIa F158 to affinity for FcγRIIb. (In general: Surface plasmon resonance follows binding to a sensor surface in real time, without labels.)
A further test deals with FcγRIIIa V158 (human) (UniProt P08637). The test is described as follows: SPR; ratio of affinity (1/Kd) for FcγRIIIa V158 to affinity for FcγRIIb.

Where two headings read alike, the source gives them in different places.

Chain of IL-2/IL-15Rβγ on kit225 cells (P14784 27-551 limits assumed, chain 1 of 2): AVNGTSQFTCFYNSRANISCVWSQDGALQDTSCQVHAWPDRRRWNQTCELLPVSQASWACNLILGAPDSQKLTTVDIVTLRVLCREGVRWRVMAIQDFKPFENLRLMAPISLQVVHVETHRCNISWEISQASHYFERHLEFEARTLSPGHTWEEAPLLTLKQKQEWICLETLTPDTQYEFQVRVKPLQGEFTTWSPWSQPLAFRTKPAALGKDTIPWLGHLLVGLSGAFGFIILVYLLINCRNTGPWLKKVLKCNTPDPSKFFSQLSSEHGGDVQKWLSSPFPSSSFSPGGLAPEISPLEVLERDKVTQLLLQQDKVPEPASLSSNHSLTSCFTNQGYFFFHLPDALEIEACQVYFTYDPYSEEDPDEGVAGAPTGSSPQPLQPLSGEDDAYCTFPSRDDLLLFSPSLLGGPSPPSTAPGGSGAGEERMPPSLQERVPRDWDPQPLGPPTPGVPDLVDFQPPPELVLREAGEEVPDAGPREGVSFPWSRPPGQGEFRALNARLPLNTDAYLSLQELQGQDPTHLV
Chain of IL-2/IL-15Rβγ on kit225 cells (P31785 23-369 limits assumed, chain 2 of 2, further chain): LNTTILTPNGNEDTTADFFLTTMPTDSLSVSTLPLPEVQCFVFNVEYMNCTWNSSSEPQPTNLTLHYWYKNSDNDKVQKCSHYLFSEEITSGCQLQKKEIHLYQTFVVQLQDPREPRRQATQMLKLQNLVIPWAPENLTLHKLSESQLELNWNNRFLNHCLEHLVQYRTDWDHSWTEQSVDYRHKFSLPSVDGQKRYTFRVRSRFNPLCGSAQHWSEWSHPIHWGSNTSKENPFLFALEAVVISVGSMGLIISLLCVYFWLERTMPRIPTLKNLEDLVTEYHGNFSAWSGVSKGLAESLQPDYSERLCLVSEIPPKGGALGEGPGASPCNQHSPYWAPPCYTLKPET
Chain of PD-1 on PD-1 Effector Cells (Q15116 25-288 limits assumed): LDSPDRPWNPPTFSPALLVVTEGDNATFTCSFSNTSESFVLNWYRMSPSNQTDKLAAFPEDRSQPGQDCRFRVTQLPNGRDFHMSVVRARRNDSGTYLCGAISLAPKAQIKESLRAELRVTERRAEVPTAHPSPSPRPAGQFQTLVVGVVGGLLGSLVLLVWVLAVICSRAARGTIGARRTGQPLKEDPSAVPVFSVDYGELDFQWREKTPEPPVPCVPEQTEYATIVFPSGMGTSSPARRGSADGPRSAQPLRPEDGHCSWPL

As to PD1-IL2v, in test [1], the EC50 kit225 cells is 3.02 nM and the Relative potency to SOT101 stood at 1.19%. In test [2], the EC50 kit225 cells amounted to 3.94 nM, the EC50 on kit225 cells turned out to be 3.02 nM and the Relative potency to SOT201 stood at 455%. In test [3], this substance came in with an EC50, PD-1/PD-L1 Blockade Bioassay of 4.57 nM and a Relative potency vs Keytruda of 38.6%.

With SOT201 wt (with RLI2AQ), in test [1], the EC50 kit225 cells is 0.249 nM and the Relative potency to SOT101 came to 14.4%.

As to Zolbetuximab (antibody), the A/I (F158) in the test with FcγRIIIa F158 (human) came to 32.9. Moreover, the A/I (V158) with FcγRIIIa V158 (human) was 161.
